The text below walks through data of patent US20140044713A1 (KONINKLIJKE NEDERLANDSE AKADEMIE VAN WETENSCHAPPEN, published 2014).

B1: FLAG/HA-tagged Lgr5 (receptor, human, UniProt O75473 22-907, looked up)
chain: GSSPRSGVLLRGCPTHCHCEPDGRMLLRVDCSDLGLSELPSNLSVFTSYLDLSMNNISQLLPNPLPSLRFLEELRLAGNALTYIPKGAFTGLYSLKVLMLQNNQLRHVPTEALQNLRSLQSLRLDANHISYVPPSCFSGLHSLRHLWLDDNALTEIPVQAFRSLSALQAMTLALNKIHHIPDYAFGNLSSLVVLHLHNNRIHSLGKKCFDGLHSLETLDLNYNNLDEFPTAIRTLSNLKELGFHSNNIRSIPEKAFVGNPSLITIHFYDNPIQFVGRSAFQHLPELRTLTLNGASQITEFPDLTGTANLESLTLTGAQISSLPQTVCNQLPNLQVLDLSYNLLEDLPSFSVCQKLQKIDLRHNEIYEIKVDTFQQLLSLRSLNLAWNKIAIIHPNAFSTLPSLIKLDLSSNLLSSFPITGLHGLTHLKLTGNHALQSLISSENFPELKVIEMPYAYQCCAFGVCENAYKISNQWNKGDNSSMDDLHKKDAGMFQAQDERDLEDFLLDFEEDLKALHSVQCSPSPGPFKPCEHLLDGWLIRIGVWTIAVLALTCNALVTSTVFRSPLYISPIKLLIGVIAAVNMLTGVSSAVLAGVDAFTFGSFARHGAWWENGVGCHVIGFLSIFASESSVFLLTLAALERGFSVKYSAKFETKAPFSSLKVIILLCALLALTMAAVPLLGGSKYGASPLCLPLPFGEPSTMGYMVALILLNSLCFLMMTIAYTKLYCNLDKGDLENIWDCSMVKHIALLLFTNCILNCPVAFLSFSSLINLTFISPEVIKFILLVVVPLPACLNPLLYILFNPHFKEDLVSLRKQTYVWTRSKHPSLMSINSDDVEKQSCDSTQALVTFTSSSITYDLPPSSVPSPAYPVTESCHLSSVAFVPCL
notes: whole, on cells; also called Lgr5 bait; FH-tagged human Lgr5; not shown: FLAG/HA double tag
B2: eEF2K (enzyme, not shown: small tags and cut ends)
chain: ADEDLIFRLEGVDGGQSPRAGHDGDSDGDSDDEEGYFICPITDDPSSNQNVNSKVNKYYSNLTKSERYSSSGSPANSFHFKEAWKHAIQKAKHMPDPWAEFHLEDIATERATRHRYNAVTGEWLDDEVLIKMASQPFGRGAMRECFRTKKLSNFLHAQQWKGASNYVAKRYIEPVDRDVYFEDVRLQMEAKLWGEEYNRHKPPKQVDIMQMCIIELKDRPGKPLFHLEHYIEGKYIKYNSNSGFVRDDNIRLTPQAFSHFTFERSGHQLIVVDIQGVGDLYTDPQIHTETGTDFGDGNLGVRGMALFFYSHACNRICESMGLAPFDLSPRERDAVNQNTKLLQSAKTILRGTEEKCGSPQVRTLSGSRPPLLRPLSENSGDENMSDVTFDSLPSSPSSATPHSQKLDHLHWPVFSDLDNMASRDHDHLDNHRESENSGDSGYPSEKRGELDDPEPREHGHSYSNRKYESDEDSLGSSGRVCVEKWNLLNSSRLHLPRASAVALEVQRLNALDLEKKIGKSILGKVHLAMVRYHEGGRFCEKGEEWDQESAVFHLEHAANLGELEAIVGLGLMYSQLPHHILADVSLKETEENKTKGFDYLLKAAEAGDRQSMILVARAFDSGQNLSPDRCQDWLEALHWYNTALEMTDCDEGGEYDGMQDEPRYMMLAREAEMLFTGGYGLEKDPQRSGDLYTQAAEAAMEAMKGRLANQYYQKAEEAWAQMEE
notes: TAP-MS bait
B3: FBXW4 (other, not shown: small tags and cut ends)
chain: MAAAAGEEEEEEEAARESAARPAAGPALWRLPEELLLLICSYLDMRALGRLAQVCRWLRRFTSCDLLWRRIARASLNSGFTRLGTDLMTSVPVKERVKVSQNWRLGRCREGILLKWRCSQMPWMQLEDDSLYISQANFILAYQFRPDGASLNRRPLGVFAGHDEDVCHFVLANSHIVSAGGDGKIGIHKIHSTFTVKYSAHEQEVNCVDCKGGIIVSGSRDRTAKVWPLASGRLGQCLHTIQTEDRVWSIAISPLLSSFVTGTACCGHFSPLRIWDLNSGQLMTHLGSDFPPGAGVLDVMYESPFTLLSCGYDTYVRYWDLRTSVRKCVMEWEEPHDSTLYCLQTDGNHLLATGSSYYGVVRLWDRRQRACLHAFPLTSTPLSSPVYCLRLTTKHLYAALSYNLHVLDFQNP
notes: TAP-MS bait
B4: KCTD21 (other, not shown: small tags and cut ends)
chain: MSDPITLNVGGKLYTTSLATLTSFPDSMLGAMFSGKMPTKRDSQGNCFIDRDGKVFRYILNFLRTSHLDLPEDFQEMGLLRREADFYQVQPLIEALQEKEVELSKAEKNAMLNITLNQRVQTVHFTVREAPQIYSLSSSSMEVFNANIFSTSCLFLKLLGSKLFYCSNGNLSSITSHLQDPNHLTLDWVANVEGLPEEEYTKQNLKRLWVVPANKQINSFQVFVEEVLKIALSDGFCIDSSHPHALDFMNNKIIRLIRYR
notes: TAP-MS bait
B5: UCHL1 (enzyme, not shown: small tags and cut ends)
chain: MQLKPMEINPEMLNKVLSRLGVAGQWRFVDVLGLEEESLGSVPAPACALLLLFPLTAQHENFRKKQIEELKGQEVSPKVYFMKQTIGNSCGTIGLIHAVANNQDKLGFEDGSVLKQFLSETEKMSPEDRAKCFEKNEAIQAAHDAVAQEGQCRVDDKVNFHFILFNNVDGHLYELDGRMPFPVNHGASSEDTLLKDAAKVCREFTEREQGEVRFSAVALC
notes: TAP-MS bait
B6: FBXW5 (other, not shown: small tags and cut ends)
chain: MDEGGTPLLPDSLVYQIFLSLGPADVLAAGLVCRQWQAVSRDEFLWREQFYRYYQVARDVPRHPAAMSWYEEFQRLYDTVPCVEVQTLREHTDQVLHLSFSHSGYQFASCSKDCTVKIWSNDLTISLLHSADMRPYNWSYTQFSQFNKDDSLLLASGVFLGPHNSSSGEIAVISLDSFALLSRVRNKPYDVFGCWLTETSLISGNLHRIGDITSCSVLWLNNAFQDVESENVNVVKRLFKIQNLNASTVRTVMVADCSRFDSPDLLLEAGDPATSPCRIFDLGSDNEEVVAGPAPAHAKEGLRHFLDRVLEGRAQPQLSERMLETKVAELLAQGHTKPPERSATGAKSKYLIFTTGCLTYSPHQIGIKQILPHQMTTAGPVLGEGRGSDAFFDALDHVIDIHGHIIGMGLSPDNRYLYVNSRAWPNGAVVADPMQPPPIAEEIDLLVFDLKTMREVRRALRAHRAYTPNDECFFIFLDVSRDFVASGAEDRHGYIWDRHYNICLARLRHEDVVNSVVFSPQEQELLLTASDDATIKAWRSPRTMRVLQAPRPRPRTFFSWLASQRR
notes: TAP-MS bait
B7: double (Flag-HA)-tagged version of human Dkk1 (Dkk1-FH) (ligand, UniProt O94907 32-266, looked up)
chain: TLNSVLNSNAIKNLPPPLGGAAGHPGSAVSAAPGILYPGGNKYQTIDNYQPYPCAEDEECGTDEYCASPTRGGDAGVQICLACRKRRKRCMRHAMCCPGNYCKNGICVSSDQNHFRGEIEETITESFGNDHSTLDGYSRRTTLSSKMYHTKGQEGSVCLRSSDCASGLCCARHFWSKICKPVLKEGQVCTKHRRKGSHGLEIFQRCYCGEGLSCRIQKDHHQASNSSRLHTCQRH
notes: not shown: Flag-HA double tag

T2 sequence (O75581 20-1613): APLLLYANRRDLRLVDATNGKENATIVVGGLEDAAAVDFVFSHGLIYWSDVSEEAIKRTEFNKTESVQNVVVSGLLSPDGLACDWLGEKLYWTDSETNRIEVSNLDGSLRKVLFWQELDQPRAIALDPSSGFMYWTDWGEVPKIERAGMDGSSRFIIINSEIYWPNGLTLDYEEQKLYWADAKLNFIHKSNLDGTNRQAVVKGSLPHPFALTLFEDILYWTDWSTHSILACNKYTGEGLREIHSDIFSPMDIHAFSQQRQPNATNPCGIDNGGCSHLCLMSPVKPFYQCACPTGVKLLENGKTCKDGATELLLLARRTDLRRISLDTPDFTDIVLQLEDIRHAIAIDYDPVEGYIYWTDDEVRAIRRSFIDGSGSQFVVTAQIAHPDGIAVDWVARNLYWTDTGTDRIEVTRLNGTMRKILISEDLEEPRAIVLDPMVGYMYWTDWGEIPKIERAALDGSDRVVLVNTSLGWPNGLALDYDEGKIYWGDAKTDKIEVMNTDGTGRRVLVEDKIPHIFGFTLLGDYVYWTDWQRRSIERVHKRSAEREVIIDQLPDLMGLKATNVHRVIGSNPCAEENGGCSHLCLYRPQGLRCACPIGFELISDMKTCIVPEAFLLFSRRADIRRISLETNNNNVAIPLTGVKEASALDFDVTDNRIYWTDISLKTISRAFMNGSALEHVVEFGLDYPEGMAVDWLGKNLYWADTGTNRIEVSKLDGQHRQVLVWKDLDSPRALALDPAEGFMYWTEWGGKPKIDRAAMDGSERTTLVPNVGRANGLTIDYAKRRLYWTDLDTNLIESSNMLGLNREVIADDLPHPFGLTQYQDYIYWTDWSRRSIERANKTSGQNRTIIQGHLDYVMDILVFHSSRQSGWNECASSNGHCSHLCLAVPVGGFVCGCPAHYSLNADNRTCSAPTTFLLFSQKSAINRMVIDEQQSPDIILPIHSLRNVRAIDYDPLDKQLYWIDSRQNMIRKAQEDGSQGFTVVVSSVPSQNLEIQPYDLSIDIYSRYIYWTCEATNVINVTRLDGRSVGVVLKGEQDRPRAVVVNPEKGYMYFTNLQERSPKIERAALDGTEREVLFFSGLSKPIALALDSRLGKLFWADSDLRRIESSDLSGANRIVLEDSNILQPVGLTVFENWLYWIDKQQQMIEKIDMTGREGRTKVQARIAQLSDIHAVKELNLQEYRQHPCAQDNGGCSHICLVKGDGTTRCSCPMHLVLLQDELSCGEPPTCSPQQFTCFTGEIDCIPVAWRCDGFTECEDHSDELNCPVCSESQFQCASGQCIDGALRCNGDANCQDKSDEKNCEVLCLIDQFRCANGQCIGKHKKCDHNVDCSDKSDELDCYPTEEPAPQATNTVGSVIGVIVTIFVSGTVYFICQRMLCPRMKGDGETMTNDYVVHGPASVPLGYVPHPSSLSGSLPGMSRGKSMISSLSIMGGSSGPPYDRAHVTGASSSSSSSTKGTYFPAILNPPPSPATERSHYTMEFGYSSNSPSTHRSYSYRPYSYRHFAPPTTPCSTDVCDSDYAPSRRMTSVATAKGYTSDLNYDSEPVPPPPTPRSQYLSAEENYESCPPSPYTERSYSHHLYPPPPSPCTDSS

One experiment has as its target T1, Frz7 (endogenous, LS174T cells) (human, UniProt O75084 33-574).
T1 construct: whole, on cells
The experiment in a line: TAP (anti-FLAG, anti-HA) + mass spectrometry, bait stably expressed in LS174T cells, Exp 3-6. Here is the method: (§1) Left panel (Exps 1-7): HEK293T cells were transiently transfected, and LS174T cells were stably, transfected with the indicated tagged proteins. Right panel (Exps 8-9): HEK293T cells were incubated with the indicated tagged soluble proteins at 1 μg/ml. Sequential immunoprecipitation was performed by anti-FLAG and anti-HA antibodies and the associated complexes were analysed by mass spectrometry. Number of assigned spectra, number of unique peptides and the MASCOT Protein Score are given for selected identified proteins.
Consider B1, for which the binding result is listed as “no binding”.

The next experiment has as its target T2, LRP6 (endogenous) (human, UniProt O75581 20-1613).
T2 construct: whole, on cells
The experiment in a line: TAP + mass spectrometry, HEK293 cells.
On to B2, for which the binding result is reported as “no binding”.
Consider B3, for which the binding result is reported as “no binding”.
As for B4, the binding result is recorded as “no binding”.
On to B5, for which the binding result is “no binding”.
As to B6, the binding result is on record as “no binding”.

In another experiment the target is T3, LRP5 (endogenous) (human, UniProt O75197 32-1615).
T3 construct: whole, on cells
T3 sequence (O75197 32-1615): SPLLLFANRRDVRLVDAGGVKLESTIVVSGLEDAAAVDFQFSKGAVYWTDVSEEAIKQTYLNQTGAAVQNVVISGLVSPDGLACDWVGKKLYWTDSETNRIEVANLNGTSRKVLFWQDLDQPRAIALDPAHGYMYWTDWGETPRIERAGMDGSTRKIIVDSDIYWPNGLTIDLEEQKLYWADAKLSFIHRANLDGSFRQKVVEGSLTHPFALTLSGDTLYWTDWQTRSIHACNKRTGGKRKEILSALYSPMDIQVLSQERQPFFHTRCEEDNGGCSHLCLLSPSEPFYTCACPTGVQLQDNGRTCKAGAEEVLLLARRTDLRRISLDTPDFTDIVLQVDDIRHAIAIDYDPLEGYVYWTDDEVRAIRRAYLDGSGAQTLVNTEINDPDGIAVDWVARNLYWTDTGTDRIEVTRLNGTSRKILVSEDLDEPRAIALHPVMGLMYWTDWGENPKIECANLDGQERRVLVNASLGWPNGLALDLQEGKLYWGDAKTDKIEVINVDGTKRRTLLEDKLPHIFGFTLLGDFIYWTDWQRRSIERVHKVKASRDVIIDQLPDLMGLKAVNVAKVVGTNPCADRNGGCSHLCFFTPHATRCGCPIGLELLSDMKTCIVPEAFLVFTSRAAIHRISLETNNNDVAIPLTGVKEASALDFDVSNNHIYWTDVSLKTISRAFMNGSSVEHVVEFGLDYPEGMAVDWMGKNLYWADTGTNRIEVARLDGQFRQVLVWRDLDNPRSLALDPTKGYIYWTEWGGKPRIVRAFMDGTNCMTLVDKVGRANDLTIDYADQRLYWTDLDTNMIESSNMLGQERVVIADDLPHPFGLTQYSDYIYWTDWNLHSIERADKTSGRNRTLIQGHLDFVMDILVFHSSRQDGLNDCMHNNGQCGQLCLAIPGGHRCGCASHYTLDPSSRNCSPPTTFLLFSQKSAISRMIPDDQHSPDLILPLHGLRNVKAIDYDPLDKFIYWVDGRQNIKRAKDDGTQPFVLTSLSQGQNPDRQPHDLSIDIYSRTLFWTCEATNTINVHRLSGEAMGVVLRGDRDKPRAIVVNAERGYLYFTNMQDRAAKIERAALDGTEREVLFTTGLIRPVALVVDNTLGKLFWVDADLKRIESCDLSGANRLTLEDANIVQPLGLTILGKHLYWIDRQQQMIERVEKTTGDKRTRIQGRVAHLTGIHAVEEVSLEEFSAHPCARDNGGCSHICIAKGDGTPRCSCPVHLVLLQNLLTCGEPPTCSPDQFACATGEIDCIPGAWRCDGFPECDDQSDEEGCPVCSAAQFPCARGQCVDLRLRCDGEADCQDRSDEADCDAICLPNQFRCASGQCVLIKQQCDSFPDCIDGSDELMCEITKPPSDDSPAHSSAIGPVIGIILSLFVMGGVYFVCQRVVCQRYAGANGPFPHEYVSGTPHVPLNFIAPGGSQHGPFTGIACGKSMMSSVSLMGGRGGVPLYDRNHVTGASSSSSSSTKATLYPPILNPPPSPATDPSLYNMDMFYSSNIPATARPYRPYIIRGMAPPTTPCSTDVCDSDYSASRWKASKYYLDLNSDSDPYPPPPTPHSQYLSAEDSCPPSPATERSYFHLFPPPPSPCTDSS
Put plainly: TAP + mass spectrometry, HEK293 cells.
In the case of B2, the binding result was “no binding”.
The same measure, in the same setting: the entry for B3 is “no binding”.
Turning to B4, the binding result is “no binding”.
Consider B5, for which the binding result was “no binding”.
Same read-out and setting: the entry for B6 is “no binding”.

Another experiment concerns the target T4, Lgr4 (endogenous, or expression construct whose tag is not stated) (human, UniProt Q9BXB1 25-951).
T4 construct: whole, on cells; Endogenous protein of HEK293T / LS174T cells in TAP-MS; also called endogenous Lgr4
Put plainly: TAP + mass spectrometry, HEK293 cells.
For the molecule B2, the binding result is given as “no binding”.
For B3, the binding result is “no binding”.
Consider B4, for which the binding result is reported as “no binding”.
In the case of B5, the binding result is “no binding”.
For the molecule B6, the binding result is “no binding”.

The target in another experiment is T4, Lgr4 (endogenous, or expression …). The experiment in a line: TAP (anti-FLAG, anti-HA) + mass spectrometry, 293T cells incubated with the soluble tagged bait, Exp 8. Here is the method:
as §1
With B7, the binding result is reported as “no binding (tested: 1 µg/ml)”.
